Data published in patent publication US20120231013A1 (Amgen, published 2012).
Values joined by “and” are separate entries in the source; they are usually repeats but may differ in a detail not shown here. Equal entries are not always repeated.

B1: recombinant human TIMP-3 (other, UniProt P35625 24-211, looked up)
chain: CTCSPSHPQDAFCNSDIVIRAKVVGKKLVKEGPFGTLVYTIKQMKMYRGFTKMPHVQYIHTEASESLCGLKLEVNKYQYLLTGRVYDGKMYTGLCNFVERWDQLTLSQRKGLNYRYHLGCNCKIKSCYYLPCFVTSKNECLWTDMLSNFGYPGYQSKHYACIRQKGGYCSWYRGWAPPDKSIINATDP

Legend:
MMP-13 [1] = target: T1, MMP-13 (UniProt P45452 20-471, limits assumed); assay: cell-based or functional assay
recombinant human TIMP-3 [2] = target: B1; assay: indirect ELISA, huTIMP-3 captured by anti-TIMP-3 clone 277128
Procedure: (§1) Then 100 microL/well of the diluted LRP-1 peptide titration is added to the TIMP-3 coated plate and allowed to bind for 1.5 hour at room temperature with shaking. After incubation, the plate is washed three times with 200 microL/well of wash buffer 2 (TBS [pH 7.5], 1 mM CaCl₂, 0.02% Tween-20). […] The assay plate is then washed three times with 200 microL/well with wash buffer 2. The plate is developed by adding 100 microL/well of 1:1 mixture of TMB and H₂O₂ (Pierce, Fisher Thermo Scientific, Rockford Il.), the reaction is stopped by adding 100 microL/well 2NH₂SO₄ (VWR), and read on a SpectraMax microplate reader (Molecular Devices, Sunnyvale, Calif.) at OD450 nm using SOFTmax Pro software version 3.1.2. Data is analyzed using GraphPad Prism 4.01 software. Binding of LRP-1 peptides to TIMP-3 is expressed as binding EC50.
After incubation, the plate contents are discarded and 250 microL/well of blocking buffer (1% BSA, TBS [pH 7.5], 1 mM CaCl₂) is added to the plate which is incubated with shaking for 1 hour at room temperature. The plate is then washed three times with 200 microL/well with wash buffer 1 (TBS [pH 7.5], 1 mM CaCl₂) followed by the addition of 100 microL of 20 nM recombinant human TIMP-3. The plate is incubated at room temperature for 1 hour. The LRP-1 peptides are titrated as described previously, and 100 microL/well of the diluted LRP-1 peptide titration is added to the TIMP-3 coated plate and allowed to bind for 1.5 hour at room temperature with shaking. After incubation, the plate is washed and the ELISA performed substantially as described previously for the direct binding ELISA.

[3] = target: T2, recombinant TIMP-3 (human or mouse; Table 2 does not say which); assay: AlphaScreen, biotinylated TIMP-3, Assay 1
T2 construct: The methods say 'human or mouse TIMP-3'
Procedure: (§2) Peptides were also evaluated by AlphaScreen® (Amplified Luminescent Proximity Homogeneous Assay; PerkinElmer, Waltham, Mass.) a very sensitive non-radioactive homogeneous assay technology that allows the screening of a large range of biological interactions and activities, substantially according to the manufacturer's instructions. Briefly, all dilutions are made in AlphaScreen® Buffer: [40 mM HEPES pH 7.5, 100 mM NaCl, 1 mM CaCl2, 0.1% BSA, 0.05% Tween-20]. The LRP-1 peptides are titrated in a separate polypropylene 96-well plate (Falcon) starting at 4 microM concentration and then diluted serially 3-fold for 12-points, with the last point buffer only. First 2 microL/well of protein titration curve is added to white, small volume, 384-well assay plate (Greiner Bio-One, Stonehouse, UK) in duplicate. Next, 2 microL of biotinylated (AFS, in-house conjmicroGation) recombinant human or mouse TIMP-3, is added at 12 nM (or 3 nM final assay concentration) to the assay plate. Lastly, in subdued light 4 microL of a mixture of streptavidin donor beads, anti-mouse IgG acceptor beads (PerkinElmer) both diluted to 20 microG/mL (10 microG/mL final assay concentration) and 2 nM (1 nM final concentration) rat-anti-HA (clone3F10)-HRP (Roche Diagnostics) is added to the plates. Plates containing 8 microL final assay volme are covered with TopSeal A (to prevent evaporation), spun quickly at 1000 rpm, and incubated overnight (covered with foil to prevent light exposure) before reading on Fusion plate reader (PerkinElmer) using AlphaScreen® parameters (excitation 680 nm and emission 520-620 nm). Data is analyzed using GraphPad Prism 4.01 software. Binding to TIMP-3 is reported as total signal (cps).

[4] = target: T2, recombinant TIMP-3 (human or mouse; …); assay: binding ELISA, Assay 3
recombinant human TIMP-3 [5] = target: B1; assay: direct ELISA, coated huTIMP-3
Procedure: as §1, with “After incubation, the coating solution is removed and replaced with 250 microL/well of blocking buffer (1% BSA, TBS [pH 7.5], 1 mM CaCl₂) and incubated with shaking for 1 hour at room temperature. The plates are then washed three times with 200 microL/well with wash buffer 1 (TBS [pH 7.5], 1 mM CaCl₂). The LRP-1 peptides are titrated in assay buffer (0.1% BSA, TBS [pH 7.5], 1 mM CaCl₂, 0.02% Tween-20) in a separate polypropylene non-treated round-bottom 96-well plate (BD Falcon™) starting at 1 microM concentration and then diluted serially 4-fold for 8-points, with the last point buffer only. Then” for “Then”

recombinant mouse TIMP-3 = target: T3, recombinant mouse TIMP-3 (mouse, UniProt P39876 24-211); assay: direct ELISA, coated muTIMP-3
T3 construct: also called MuTIMP-3
T3 sequence (looked up): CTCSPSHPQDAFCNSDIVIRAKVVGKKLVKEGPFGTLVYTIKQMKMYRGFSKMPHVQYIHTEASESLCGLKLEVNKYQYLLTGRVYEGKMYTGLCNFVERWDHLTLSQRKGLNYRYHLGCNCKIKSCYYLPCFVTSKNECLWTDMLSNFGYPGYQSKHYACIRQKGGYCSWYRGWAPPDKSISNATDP
Procedure: as §1, with “After incubation, the coating solution is removed and replaced with 250 microL/well of blocking buffer (1% BSA, TBS [pH 7.5], 1 mM CaCl₂) and incubated with shaking for 1 hour at room temperature. The plates are then washed three times with 200 microL/well with wash buffer 1 (TBS [pH 7.5], 1 mM CaCl₂). The LRP-1 peptides are titrated in assay buffer (0.1% BSA, TBS [pH 7.5], 1 mM CaCl₂, 0.02% Tween-20) in a separate polypropylene non-treated round-bottom 96-well plate (BD Falcon™) starting at 1 microM concentration and then diluted serially 4-fold for 8-points, with the last point buffer only. Then” for “Then”

[6] = target: T2, recombinant TIMP-3 (human or mouse; …); assay: binding ELISA, Assay 1
MMP-13 [7] = target: T1, MMP-13; assay: cell-based or functional assay; remark: listed apart in the source
recombinant human TIMP-3 [8] = target: B1; assay: cell-based or functional assay
[9] = target: T2, recombinant TIMP-3 (human or mouse; …); assay: AlphaScreen, biotinylated TIMP-3, Assay 2
Procedure: as §2

[10] = target: T2, recombinant TIMP-3 (human or mouse; …); assay: binding ELISA, Assay 2

Binder	IC50 of TIMP-3 inhibition of MMP-13 (fluorogenic substrate) (MMP-13 [1])	EC50 (recombinant human TIMP-3 [2])	total signal (cps) [3]	EC50 [4]	EC50 (recombinant human TIMP-3 [5])	EC50 (recombinant mouse TIMP-3)	EC50 [6]	Direct Inhibition of MMP13 (% decrease), 1000 nM (MMP-13 [7])	% of the inhibitory activity of TIMP-3 + peptide compared to TIMP-3 alone, 16 nM (recombinant human TIMP-3 [8])	% of the inhibitory activity of TIMP-3 + peptide compared to TIMP-3 alone, 80 nM (recombinant human TIMP-3 [8])	% of the inhibitory activity of TIMP-3 + peptide compared to TIMP-3 alone, 400 nM (recombinant human TIMP-3 [8])	% of the inhibitory activity of TIMP-3 + peptide compared to TIMP-3 alone, 2000 nM (recombinant human TIMP-3 [8])	total signal (cps) [9]	EC50 [10]
B1	0.5 to 1 nM													
LRP-1 peptide LA5-7 (Tags implied (Ni-NTA, anti-HA detection), not described) not shown		9 nM	2000 cps	350 nM	94 nM	74 nM	210 nM	2%	101%	99%	93%	68%	8000 cps	
LRP-1 peptide LA3-5 (Tags implied (Ni-NTA, anti-HA detection), not described) not shown		8 nM	4000 cps	214 nM	78 nM	71 nM	52.5 nM	2%	104%	101%		101%	9000 cps	
LRP-1 peptide LA24-26 (The end 3574 is inferred from the end of LA26) not shown		8 nM	150000 cps	68 nM	28 nM	15 nM	46 nM and 26 nM	59%	92%	95%	105%		120000 cps	80 nM
